Reference: the supplement of paper PMC10567573
± gives the standard deviation.

Assay: protein stability index of a GFP-peptide fusion (GPS, HEK-293T) (PSI 1-6); higher = more stable
[1] = treatment: DMSO, c terminus: a fixed tail appended
[2] = treatment: MLN4924 1 uM, 8 h, c terminus: a fixed tail appended
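Note: 24-mer peptide tiles fused after GFP, lentivirally expressed, FACS-sorted into six equal bins by GFP/DsRed ratio, decoded by Illumina sequencing, PSI is the read-weighted mean bin number.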

PAVDLNQVLNETRNQYEALVETNR [KRT33B]
protein stability index [1]: 3.39 ± 0.36
protein stability index [2]: 3.87 ± 0.74

TPTPQALYPDLSCPEGLEELLSAP [SPSB2]
protein stability index [1]: 4.54 ± 0.24
protein stability index [2]: 4.55 ± 0.3

KKKEGGALRAQRASSNVFSNFEQT [MYL5]
protein stability index [1]: 4.42 ± 0.45
protein stability index [2]: 4.47 ± 0.15

PSWNGSLKQLLTETDVWFSKQRKD [GMCL1]
protein stability index [1]: 3.27 ± 0.049
protein stability index [2]: 3.29 ± 0.43

ADIMISFVRGDHRDNSPFDGPGGN [MMP1]
protein stability index [1]: 2.96 ± 0.31
protein stability index [2]: 3.07 ± 0.36

GTPGPFTKEGGMLAYYEVCSWKGA [CHIT1]
protein stability index [1]: 2.47 ± 0.17
protein stability index [2]: 2.55 ± 0.55

SAAVRGHPRALPPDARPHRRPHEL [HAGHL]
protein stability index [1]: 4.404 ± 0.036
protein stability index [2]: 4.47 ± 0.13

EIERAIKQTQCPADPLQLNKALSI [FEM1C]
protein stability index [1]: 3.42 ± 0.44
protein stability index [2]: 3.28 ± 0.16

RCSSMHFLVAEWNEPSINFYKRRG [SAT1]
protein stability index [1]: 2.86 ± 0.33
protein stability index [2]: 2.42 ± 0.28

RCPSSSLHMSQRERTWPPPAMSPY [C22orf15]
protein stability index [1]: 2.89 ± 0.3
protein stability index [2]: 2.9 ± 0.27

DLMGVLTKGVREVERALQLPREPG [FEM1A]
protein stability index [1]: 2.82 ± 0.17
protein stability index [2]: 2.69 ± 0.37

CKDSESNKHLCYVFDSEKCVSIPD [GULP1]
protein stability index [1]: 3.27 ± 0.11
protein stability index [2]: 3.41 ± 0.35

LSEASGGRAENGERSDLEEDNERE [ZC3H15]
protein stability index [1]: 5.53 ± 0.47
protein stability index [2]: 5.81 ± 0.062

ADIKQYIGPPSAAAIFKIYLSCLE [TRIP13]
protein stability index [1]: 2.19 ± 0.4
protein stability index [2]: 2.27 ± 0.22

RELGVWRSLLRLRATRAGAAEEPG [C2CD2L]
protein stability index [1]: 3.15 ± 0.24
protein stability index [2]: 3.27 ± 0.33

NRKRECGNAHYQRADFVLAANSYD [FKBP8]
protein stability index [1]: 3.33 ± 0.35
protein stability index [2]: 3.68 ± 0.29

ATGMFLQYTVPGTEGVTQLKLTVV [ZFYVE21]
protein stability index [1]: 3.29 ± 0.56
protein stability index [2]: 2.9 ± 0.46

QVAMRCRCSSMHFLVAEWNEPSIN [SAT1]
protein stability index [1]: 2.23 ± 0.53
protein stability index [2]: 2.27 ± 0.2

ALKDSLRPKLSEEQQRIIAILLDA [VDR]
protein stability index [1]: 2.44 ± 0.2
protein stability index [2]: 2.44 ± 0.41

GGTPHCEPCQLPSESPGSLSEVLA [DNAAF3]
protein stability index [1]: 4.19 ± 0.49
protein stability index [2]: 4.56 ± 0.33

LTDFYPVRRSSRKSKAELQSEERK [KMT5A]
protein stability index [1]: 3.04 ± 0.39
protein stability index [2]: 3.49 ± 0.9

VSLSLENRELWKEFSSVGTEMIIT [TBX6]
protein stability index [1]: 2.71 ± 0.62
protein stability index [2]: 2.31 ± 0.45

ASGLGLEITTQFLIYASYFALIAV [SLC19A2]
protein stability index [1]: 3.26 ± 0.26
protein stability index [2]: 3.13 ± 0.47

SQPLDREATSHYIIELLASDAGSP [PCDHGC5]
protein stability index [1]: 3.33 ± 0.27
protein stability index [2]: 3.52 ± 0.2

QPILQIDNARLAADDFRTKYEHEL [KRT16]
protein stability index [1]: 4.6 ± 0.2
protein stability index [2]: 4.31 ± 0.45

EGMDFHRFYFENLLAKNSKPIHTT [CAMK2B]
protein stability index [1]: 2.52 ± 0.36
protein stability index [2]: 2.49 ± 0.31

KKAIKDLGISPSTCSFNPGVIVAN [GLT8D2]
protein stability index [1]: 2.95 ± 0.11
protein stability index [2]: 2.87 ± 0.43

QAGGEGAGGELGISLNMCLLGALV [PBXIP1]
protein stability index [1]: 2.92 ± 0.65
protein stability index [2]: 2.23 ± 0.33

LALPPGAEHWTKEHCGAVCFVKDN [WAS]
protein stability index [1]: 3.35 ± 0.23
protein stability index [2]: 3.45 ± 0.59

EQLLDVKLALDMEISAYRKLLQGE [LMNB1]
protein stability index [1]: 3.02 ± 0.45
protein stability index [2]: 3.13 ± 0.55

LRTRVKTTGIVETHFTFKDLHFKM [GNAI1]
protein stability index [2]: 2.14 ± 0.62

ESLRPLVQTPPGGSEVVPVISPMY [IKZF1]
protein stability index [2]: 3.72 ± 0.71

HLPVTFPGKDYDADRQCQLTFGPD [ADAMTS4]
protein stability index [1]: 4.12 ± 0.26
protein stability index [2]: 4.38 ± 0.24

TCVVPFDSEEEVIERANNVKYGLA [ALDH8A1]
protein stability index [1]: 4.29 ± 0.33
protein stability index [2]: 4.41 ± 0.23

DLDDFAGFSCNQGRYPLIQTLRQE [CHIT1]
protein stability index [1]: 3.44 ± 0.2
protein stability index [2]: 3.48 ± 0.082

ADAAEDEEVDVTSVDPIAAFCSSD [RBBP5]
protein stability index [1]: 5.57 ± 0.2
protein stability index [2]: 5.55 ± 0.2

LASLGASEEAVQKLATCYFFTVEF [TPH1]
protein stability index [1]: 2.98 ± 0.52
protein stability index [2]: 2.73 ± 0.66

LLGEPLAGPELDEMLREVDLNGDG [CABP4]
protein stability index [1]: 5.18 ± 0.21
protein stability index [2]: 5.36 ± 0.21

QPLADEGPPGRSIGGAAPSLGALD [SERTAD1]
protein stability index [1]: 5.19 ± 0.24
protein stability index [2]: 5.32 ± 0.15

NVINHFYCDLPQLFQLSCSSTQLN [OR3A1]
protein stability index [1]: 3 ± 0.66
protein stability index [2]: 2.84 ± 0.34

MINLRRLLLSHIHASSYISPEKEE [PRAME]
protein stability index [1]: 2.41 ± 0.26
protein stability index [2]: 2.63 ± 0.57

QQKKDLEILHQQNIHQLQNRLSEL [SASS6]
protein stability index [1]: 3.96 ± 0.21
protein stability index [2]: 4.13 ± 0.2

GDSGFLVVRGGEVVHRSDEQQHYF [PPTC7]
protein stability index [1]: 3.75 ± 0.41
protein stability index [2]: 3.54 ± 0.23

RRVDFCKDPSAIGKKQVPCFASML [CASP6]
protein stability index [1]: 2.43 ± 0.17
protein stability index [2]: 2.54 ± 0.23

VKRLHEVGRTEPELLVAHAYTRYL [HMOX1]
protein stability index [1]: 2.2 ± 0.26
protein stability index [2]: 2.4 ± 0.36

NTEIEKLGRSIVSSPQGKSGPEAA [PKD2L1]
protein stability index [1]: 5.35 ± 0.22
protein stability index [2]: 5.34 ± 0.15

LEDLESELDDPGQPVSLRRRKREV [ZNF24]
protein stability index [1]: 5.38 ± 0.09
protein stability index [2]: 5.49 ± 0.16

SLLSKARGIDSSSVKLRGSSLFMD [WEE1]
protein stability index [1]: 2.75 ± 0.2
protein stability index [2]: 2.49 ± 0.19

ADSLASKVTRLKSLALDIDRDAED [BET1L]
protein stability index [1]: 5.3 ± 0.2
protein stability index [2]: 5.21 ± 0.21

LPCFNGRVVSWLVSAEGSHPDPAP [DVL3]
protein stability index [1]: 2.64 ± 0.24
protein stability index [2]: 2.53 ± 0.28

LEDLKDQIAQLEASLAAAKKQLAD [LMNB1]
protein stability index [1]: 5.3 ± 0.12
protein stability index [2]: 5.21 ± 0.15

GKTMELFCQTDQTCICYLCMFQEH [TRIM29]
protein stability index [1]: 2.34 ± 0.064
protein stability index [2]: 2.33 ± 0.25

PLLLRLPRICQRNLMSLLMAVRPS [FANCE]
protein stability index [1]: 2.45 ± 0.34
protein stability index [2]: 2.56 ± 0.062

WTFYPRFSSNIHTYHVGKQCFFNG [SPATS1]
protein stability index [1]: 2.74 ± 0.53
protein stability index [2]: 2.24 ± 0.33

SNTGSESNSATVEEPPTDPIPEDE [SMARCE1]
protein stability index [1]: 5.48 ± 0.45
protein stability index [2]: 5.33 ± 0.51

EHDFLDRDAIEALCRRLNTLNKCA [DLC1]
protein stability index [1]: 2.73 ± 0.36
protein stability index [2]: 2.73 ± 0.49

SSSSASADLLAGFGGSFMAPSPSP [SNAP91]
protein stability index [1]: 4.24 ± 0.1
protein stability index [2]: 4.3 ± 0.24

RWEPSGKAEPRLPDRVYIHPDSPA [TBX6]
protein stability index [1]: 3.98 ± 0.11
protein stability index [2]: 4.13 ± 0.18

QRELEIPEQQVDMHDMLLEELAPV [ZNF449]
protein stability index [1]: 5.22 ± 0.26
protein stability index [2]: 5.12 ± 0.21

SPEQQFDRSVQRLLATRIAVYLMT [TMEM175]
protein stability index [1]: 2.31 ± 0.51
protein stability index [2]: 2.43 ± 0.66

GSGVIGRSWAMLFASGGFQVKLYD [CRYL1]
protein stability index [1]: 2.33 ± 0.31

MPAAGLAVQLRHAWNPEDRSLNVF [SPSB4]
protein stability index [1]: 2.75 ± 0.14
protein stability index [2]: 2.95 ± 0.26

NEDPLVLLAWRCTKLSLLAIHGYT [FBXO33]
protein stability index [1]: 3.05 ± 0.33
protein stability index [2]: 2.91 ± 0.65

EPSSPASLTDSVNHHSPGGSSDAS [ESRRG]
protein stability index [1]: 5.47 ± 0.15
protein stability index [2]: 5.51 ± 0.15

QFSLMLCAFVGALGGAAFLGTAIF [SPNS1]
protein stability index [1]: 2.81 ± 0.47
protein stability index [2]: 2.47 ± 0.41

LLLSHIHASSYISPEKEEQYIAQF [PRAME]
protein stability index [1]: 2.42 ± 0.54
protein stability index [2]: 2.37 ± 0.4

FLLKFLLVGDSDVGKGEILASLQD [RAB40B]
protein stability index [1]: 3.52 ± 0.49
protein stability index [2]: 1.86 ± 0.28

SCKACGYRGMLDTHHKLCTFILKN [EIF5]
protein stability index [1]: 2.55 ± 0.35
protein stability index [2]: 2.77 ± 0.46

EATTSDPQDLDMKKHRCKCCSIM [PALM]
protein stability index (treatment: DMSO, c terminus: native): 4.3 ± 0.24
protein stability index (treatment: MLN4924 1 uM, 8 h, c terminus: native): 4.58 ± 0.23

PVAAATAAEGEGSPPAVAAVAGPP [ANKRD17]
protein stability index [1]: 5.54 ± 0.19
protein stability index [2]: 5.54 ± 0.094

SGGYGQDALGMDPMMEHEMGGHHP [CTNNB1]
protein stability index [1]: 4.65 ± 0.18
protein stability index [2]: 4.69 ± 0.23

DRETQEGKPPTAHLDRTSVSSLSE [ELOA2]
protein stability index [1]: 5.37 ± 0.34
protein stability index [2]: 5.42 ± 0.21

AVVQLYLALPPGAEHWTKEHCGAV [WAS]
protein stability index [1]: 3.03 ± 0.59
protein stability index [2]: 2.71 ± 0.31

TSGKRYVYRFVCDLQNLLGFTPEE [ETS2]
protein stability index [1]: 2.56 ± 0.63
protein stability index [2]: 2.89 ± 0.84

ALEEADKMFLRTREPALDGGFQMH [EID1]
protein stability index [1]: 3.75 ± 0.066
protein stability index [2]: 3.64 ± 0.42

EGYAHLTHLLMGLASGRIILILEG [HDAC6]
protein stability index [1]: 2.91 ± 0.56
protein stability index [2]: 3.09 ± 0.041

ARRDAKKLVRSPSGLRMVPEHRAF [ZFYVE21]
protein stability index [1]: 3.11 ± 0.31
protein stability index [2]: 3.56 ± 0.17

PPRGRSEAPDSLNGPLGPSEASIA [SMG5]
protein stability index [1]: 5.07 ± 0.27
protein stability index [2]: 5.12 ± 0.14

GKAFPSGCSAVSEPASESVVGALP [TRAF3IP2]
protein stability index [1]: 4.33 ± 0.14
protein stability index [2]: 4.59 ± 0.24

FGLAIEVEGEQQAWFGFAGTPGYL [CAMK2A]
protein stability index [1]: 2.68 ± 0.92
protein stability index [2]: 2.92 ± 0.65

IDRNLREDGEKAAREVKLLLLGAG [GNAI1]
protein stability index [1]: 3.67 ± 0.23
protein stability index [2]: 3.58 ± 0.096

ITGAYDTIKHPGGAGAEESELQAY [MCOLN1]
protein stability index [1]: 4.84 ± 0.19
protein stability index [2]: 5.02 ± 0.19

EFDSPHEDIVFETDHILESLYRDI [STX11]
protein stability index [1]: 3.59 ± 0.38
protein stability index [2]: 3.58 ± 0.25

ELMKCQIIYPRQQLLTLRELEMIG [TRIP13]
protein stability index [1]: 2.33 ± 0.47
protein stability index [2]: 2.02 ± 0.53

LGPSGLQNHGQHLILSREASWAKP [LCOR]
protein stability index [1]: 3.08 ± 0.19
protein stability index [2]: 3.18 ± 0.2

TAKNSRVVCGMFGFPGERTYNTKV [LOXL2]
protein stability index [1]: 2.6 ± 0.3
protein stability index [2]: 2.63 ± 0.067

SLPQNQCYMATTKSQTACLPFVLA [EHMT1]
protein stability index [1]: 2.35 ± 0.08
protein stability index [2]: 2.23 ± 0.15

DFDEEYFSNTSELAKDFIRRLLVK [DAPK3]
protein stability index [1]: 2.77 ± 0.28
protein stability index [2]: 3.12 ± 0.3

LDRDALKQSLVVAVQDHGQPPLSA [PCDHGA10]
protein stability index [1]: 4.49 ± 0.19
protein stability index [2]: 4.678 ± 0.044

NTLKRENSSPRVMQRKQSLGKPDQ [DLC1]
protein stability index [1]: 4.85 ± 0.24
protein stability index [2]: 4.83 ± 0.38
